Assay results from patent publication US20050234225A1.

Target: KDR-alkaline phosphatase (AP) soluble fusion protein (human) (UniProt P35968)
Assay: BIAcore SPR, KDR immobilized

Sequence of KDR-alkaline phosphatase (AP) soluble fusion protein (human) (P35968 20-764): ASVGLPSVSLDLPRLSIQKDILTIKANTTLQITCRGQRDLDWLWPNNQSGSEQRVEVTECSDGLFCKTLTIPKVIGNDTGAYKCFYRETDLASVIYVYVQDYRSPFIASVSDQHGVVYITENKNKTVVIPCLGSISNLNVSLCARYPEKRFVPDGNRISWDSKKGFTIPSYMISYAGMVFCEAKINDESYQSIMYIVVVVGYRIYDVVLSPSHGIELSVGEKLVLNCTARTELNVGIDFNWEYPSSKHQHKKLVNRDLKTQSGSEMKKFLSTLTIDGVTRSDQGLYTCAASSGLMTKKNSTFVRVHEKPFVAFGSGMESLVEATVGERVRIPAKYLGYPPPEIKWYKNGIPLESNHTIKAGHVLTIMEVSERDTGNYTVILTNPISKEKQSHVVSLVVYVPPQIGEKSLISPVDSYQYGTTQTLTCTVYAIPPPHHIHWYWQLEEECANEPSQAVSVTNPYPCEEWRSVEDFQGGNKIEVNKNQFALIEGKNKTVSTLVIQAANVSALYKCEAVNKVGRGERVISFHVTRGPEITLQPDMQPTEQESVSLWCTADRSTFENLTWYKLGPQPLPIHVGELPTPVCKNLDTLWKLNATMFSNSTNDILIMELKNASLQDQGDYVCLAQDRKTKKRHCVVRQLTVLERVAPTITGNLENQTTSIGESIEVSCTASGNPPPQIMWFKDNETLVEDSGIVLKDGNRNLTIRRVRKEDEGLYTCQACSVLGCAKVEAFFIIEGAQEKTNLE

B1: p1C11 scFv (scFv, from another filing)
scFv: QVKLQQSGAELVGSGASVKLSCTTSGFNIKDFYMHWVKQRPEQGLEWIGWIDPENGDSDYAPKFQGKATMTADSSSNTAYLQLSSLTSEDTAVYYCNAYYGDYEGYWGQGTTVTVSSGGGGSGGGGSGGGGSDIELTQSPAIMSASPGEKVTITCSASSSVSYMHWFQQKPGTSPKLWIYSTSNLASGVPARFSGSGSGTSYSLTISRMEAEDAATYYCQQRSSYPFTFGSGTKLEIK
  Kd: 1.4 nM
  koff: 0.0001 s⁻¹
  kon: 77000 M⁻¹ s⁻¹
